Reference: patent publication US20090011974A1, “Scavenger Receptor B1 (Cla-1) Targeting for the Treatment of Infection, Sepsis and Inflammation” (priority 2002, published 2009)
Values joined by “and” are separate entries in the source; they are usually repeats but may differ in a detail not shown here. Equal entries are not always repeated. “Also recorded” adds a separate entry of the source. Where a SMILES comes first, the peptide text is derived from it.

Columns and labels:
[1] = tested on: THP-1 cells; settings: 20 μg/ml
Experimental: Assays for cytokines and lactate dehydrogenase (LD). Interleukins 6 and 8 (IL-6 and IL-8) and tumor-necrosis factor-α (TNF-α) are measured in culture supernatants of THP-1 cells using commercial ELISA kits (Biosource International, USA). LD activity was measured in the supernatants by a Hitachi 917 automated chemistry analyzer (Roche).

[2] = target: T1, CLA-1 (Homo sapiens, UniProt Q8WTV0); test: Competition for Alexa 488-SAA uptake in CLA-1 overexpressing and mock transfected HeLa cells (FACS); assay type: binding; settings: mock transfected and CLA-1 overexpressing HeLa cells
T1 construct: using the expression plasmid pTRE2 (Clontech, Pal Alto, Calif.), encoding a CLA-1 protein (pTRE2-CLA-1); expressed in transfected cells; host or cells: HeLa (Tet-off) cells (Clontech), stably co-transfected with pTRE2-CLA-1 and pTK-Hyg and selected with hygromycin
T1 sequence (Q8WTV0 1-509 isoform Q8WTV0-2): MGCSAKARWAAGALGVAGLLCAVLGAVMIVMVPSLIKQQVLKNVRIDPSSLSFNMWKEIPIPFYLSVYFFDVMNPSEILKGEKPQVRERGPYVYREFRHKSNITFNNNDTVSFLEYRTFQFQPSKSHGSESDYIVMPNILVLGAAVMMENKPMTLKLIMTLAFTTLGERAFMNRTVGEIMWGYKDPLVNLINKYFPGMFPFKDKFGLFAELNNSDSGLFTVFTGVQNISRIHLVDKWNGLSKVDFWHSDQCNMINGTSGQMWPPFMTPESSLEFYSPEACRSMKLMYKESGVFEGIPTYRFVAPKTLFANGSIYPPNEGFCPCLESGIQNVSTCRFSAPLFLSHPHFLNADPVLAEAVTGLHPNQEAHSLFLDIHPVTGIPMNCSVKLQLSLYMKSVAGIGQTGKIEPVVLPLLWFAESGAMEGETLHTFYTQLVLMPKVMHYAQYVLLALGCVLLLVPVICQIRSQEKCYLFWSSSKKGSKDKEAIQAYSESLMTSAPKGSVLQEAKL
Experimental: Competition experiments. Cells are cultured for 24 hr in serum free DMEM before experiments. […] For KKB-1 anti-CLA-1 blocking experiments, cells are pre-incubated with KKB-1 rabbit anti-serum (non-immune rabbit serum as a negative control) at a dilution of 1:10 followed by ligand addition to a final concentration of 5 μg/ml and a 1-hour incubation. Cell fluorescence was analyzed by FACS analyses.

[3] = target: T2, CLA-1 (CD36 and LIMPII Analogous-1), human scavenger receptor class B type I (human, UniProt Q8WTV0 1-552); test: flow cytometry of Alexa-488 SAA uptake
T2 construct: whole, on cells; Target is CLA-1 on stably transfected HeLa cells, compared with mock-transfected HeLa cells, which carry a low endogenous level of CLA-1; also called SR-BI/CLA-1; human SR-BI
T2 sequence (looked up): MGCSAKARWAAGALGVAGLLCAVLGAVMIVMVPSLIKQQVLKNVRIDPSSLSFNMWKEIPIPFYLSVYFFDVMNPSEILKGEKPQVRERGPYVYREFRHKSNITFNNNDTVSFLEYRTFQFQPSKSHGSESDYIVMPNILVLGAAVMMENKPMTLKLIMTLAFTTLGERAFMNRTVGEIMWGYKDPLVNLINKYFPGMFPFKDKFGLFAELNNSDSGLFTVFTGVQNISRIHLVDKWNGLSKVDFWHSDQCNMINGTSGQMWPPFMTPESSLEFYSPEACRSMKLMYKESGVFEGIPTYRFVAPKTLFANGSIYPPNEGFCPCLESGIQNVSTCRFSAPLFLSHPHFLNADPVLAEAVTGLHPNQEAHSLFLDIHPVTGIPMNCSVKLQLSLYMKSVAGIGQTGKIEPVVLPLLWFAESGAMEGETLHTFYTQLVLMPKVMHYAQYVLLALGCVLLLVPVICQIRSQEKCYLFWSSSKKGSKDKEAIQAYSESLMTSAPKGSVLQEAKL

[4] = target: T1, CLA-1; test: FACS analysis of Alexa 488-SAA and Alexa 488-HDL uptake in HeLa cells; assay type: cell-based; settings: CLA-1 overexpressing HeLa cells
Experimental: Ligand-uptake experiments. Binding experiments are performed at 37° C. using concentrations between 1.25 and 30 μg/ml. All incubations are performed in DMEM containing 2 mg/ml BSA. After a 2-hr-incubation […], the cells are rinsed with ice-cold PBS and released by a 30-min incubation in EDTA containing Cell stripper (CellGro, USA). Cells are resuspended and added to an equal volume of 4% paraformaldehyde in PBS. Cell fluorescence is analyzed by FACS analyses.

fold increase of uptake over mock transfected HeLa cells [3] [fold]	concentration at which SAA uptake plateaus [4]	Molecule	toxic effect (LDH release, β-actin expression) [1]	competition with Alexa 488-SAA for CLA-1 [2]
–	–	CC(C)C[C@H](NC(=O)[C@H](Cc1c[nH]c2ccccc12)NC(=O)[C@H](CC(=O)O)NC(=O)[C@@H]1CCCN1C(=O)[C@H](Cc1ccccc1)NC(=O)[C@H](C)NC(=O)[C@H](CCC(=O)O)NC(=O)[C@H](CCCCN)NC(=O)[C@H](CC(C)C)NC(=O)[C@H](CCCCN)NC(=O)[C@H](CCC(=O)O)NC(=O)[C@H](C)NC(=O)[C@@H](NC(=O)[C@H](CCCCN)NC(=O)[C@H](CC(=O)O)NC(=O)[C@H](Cc1ccc(O)cc1)NC(=O)[C@H](Cc1ccccc1)NC(=O)[C@H](C)NC(=O)[C@H](CCCCN)NC(=O)[C@H](CC(C)C)NC(=O)[C@H](Cc1c[nH]c2ccccc12)NC(=O)[C@@H](N)CC(=O)O)C(C)C)C(=O)N[C@@H](CCCCN)C(=O)N[C@@H](C)C(=O)N[C@@H](Cc1ccccc1)C(=O)N[C@@H](Cc1ccc(O)cc1)C(=O)N[C@@H](CC(=O)O)C(=O)N[C@@H](CCCCN)C(=O)N[C@H](C(=O)N[C@@H](C)C(=O)N[C@@H](CCC(=O)O)C(=O)N[C@@H](CCCCN)C(=O)N[C@@H](CC(C)C)C(=O)N[C@@H](CCCCN)C(=O)N[C@@H](CCC(=O)O)C(=O)N[C@@H](C)C(=O)N[C@@H](Cc1ccccc1)C(=O)O)C(C)C [Peptide L-37PA] (H-DWLKAFYDKVAEKLKEAFPDWLKAFYDKVAEKLKEAF-OH; N-terminus and C-terminus assumed)	no apparent toxic effect	–
> 5	2.5 µg/mL and 2.5 to 5 µg/mL	Serum Amyloid A1 (StressGene) (ligand, UniProt P0DJI8 19-122, looked up, also called SAA; lipid-free SAA) RSFFSFLGEAFDGARDMWRAYSDMREANYIGSDKYFHARGNYDAAKRGPGGAWAAEVITDARENIQRFFGHGAEDSLADQAANEWGRSGKDPNHFRPAGLPEKY	–	efficient competitor; also recorded: competed for CLA-1 binding with Alexa 488-SAA
